Test results taken from US20260001928A1 (CORTERIA PHARMACEUTICALS, priority 2022, published 2026).
*1 amine or outer side, *2 acyl side, *3 side chain or, on linkers, in order; H or OH if unused. Where no end group is shown, it is not given here. Side-chain parts run from the residue outwards. [ ]: non-standard residue; d: D form. The star is where a group is joined. C18 diacid = O=C(O)CCCCCCCCCCCCCCCCC(=O)*; γGlu = O=C(O)[C@H](CCC(=O)[*:2])N[*:1]; NMeI = CC[C@H](C)[C@H](NC)C(=O)O; Api = NC1(C(=O)O)CCNCC1; Pentanoyl = CCCCC(=O)*; Aib = CC(C)(N)C(=O)O

Tests used:
CRF1R receptor = molecular target: T1, CRF1R receptor (UniProt P34998 24-415, limits assumed); assay: cell-based or functional assay
T1 sequence (looked up): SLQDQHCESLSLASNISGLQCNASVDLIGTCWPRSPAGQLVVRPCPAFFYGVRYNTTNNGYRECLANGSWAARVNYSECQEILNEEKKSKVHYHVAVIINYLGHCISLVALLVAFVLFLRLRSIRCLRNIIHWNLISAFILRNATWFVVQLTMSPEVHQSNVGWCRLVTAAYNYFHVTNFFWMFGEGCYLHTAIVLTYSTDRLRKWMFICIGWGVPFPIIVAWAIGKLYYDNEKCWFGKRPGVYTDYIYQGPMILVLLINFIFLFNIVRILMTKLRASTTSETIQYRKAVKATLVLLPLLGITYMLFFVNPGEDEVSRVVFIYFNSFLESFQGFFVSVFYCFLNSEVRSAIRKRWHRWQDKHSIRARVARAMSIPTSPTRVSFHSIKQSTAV

[1] = molecular target: human corticotropin-releasing factor 2a (CRF2a receptor) (human), Q13324; assay: cell-based or functional assay
Sequence of human corticotropin-releasing factor 2a (CRF2a receptor) (human), Q13324 (Q13324 20-411): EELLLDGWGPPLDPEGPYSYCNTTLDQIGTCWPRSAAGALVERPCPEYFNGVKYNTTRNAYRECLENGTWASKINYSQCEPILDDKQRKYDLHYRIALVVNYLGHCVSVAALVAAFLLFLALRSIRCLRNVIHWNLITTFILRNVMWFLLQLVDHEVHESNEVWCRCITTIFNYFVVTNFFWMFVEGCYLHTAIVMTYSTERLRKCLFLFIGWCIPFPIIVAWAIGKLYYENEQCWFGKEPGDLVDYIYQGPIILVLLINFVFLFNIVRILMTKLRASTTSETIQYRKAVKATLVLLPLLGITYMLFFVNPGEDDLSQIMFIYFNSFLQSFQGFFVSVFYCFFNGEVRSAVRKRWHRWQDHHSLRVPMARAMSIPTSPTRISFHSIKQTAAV

Binder | Emax (% I) (CRF1R receptor) | EC50 [nM] (cAMP) [1] | EC50 (CRF1R receptor)
Pentanoyl-VLSLD[dV]PIKLK([γGlu-C18 diacid])KILLEQEKQKKQREQAETN[Aib]QILAQV-NH2 (SMILES CCCCC(=O)N[C@H](C(=O)N[C@@H](CC(C)C)C(=O)N[C@@H](CO)C(=O)N[C@@H](CC(C)C)C(=O)N[C@@H](CC(=O)O)C(=O)N[C@@H](C(=O)N1CCC[C@H]1C(=O)N[C@H](C(=O)N[C@@H](CCCCN)C(=O)N[C@@H](CC(C)C)C(=O)N[C@@H](CCCCNC(=O)CC[C@H](NC(=O)CCCCCCCCCCCCCCCCC(=O)O)C(=O)O)C(=O)N[C@@H](CCCCN)C(=O)N[C@H](C(=O)N[C@@H](CC(C)C)C(=O)N[C@@H](CC(C)C)C(=O)N[C@@H](CCC(=O)O)C(=O)N[C@@H](CCC(N)=O)C(=O)N[C@@H](CCC(=O)O)C(=O)N[C@@H](CCCCN)C(=O)N[C@@H](CCC(N)=O)C(=O)N[C@@H](CCCCN)C(=O)N[C@@H](CCCCN)C(=O)N[C@@H](CCC(N)=O)C(=O)N[C@@H](CCCNC(=N)N)C(=O)N[C@@H](CCC(=O)O)C(=O)N[C@@H](CCC(N)=O)C(=O)N[C@@H](C)C(=O)N[C@@H](CCC(=O)O)C(=O)N[C@H](C(=O)N[C@@H](CC(N)=O)C(=O)NC(C)(C)C(=O)N[C@@H](CCC(N)=O)C(=O)N[C@H](C(=O)N[C@@H](CC(C)C)C(=O)N[C@@H](C)C(=O)N[C@@H](CCC(N)=O)C(=O)N[C@H](C(N)=O)C(C)C)[C@@H](C)CC)[C@@H](C)O)[C@@H](C)CC)[C@@H](C)CC)C(C)C)C(C)C) [SEQ ID NO 193] | 20% | 0.17 nM | 
Ac-IVLSLD[dV]PIKLK([γGlu-C18 diacid])KILLEQEKQK[Aib]QREQAETN[Api]QILAQV-NH2 (SMILES CC[C@H](C)[C@H](NC(C)=O)C(=O)N[C@H](C(=O)N[C@@H](CC(C)C)C(=O)N[C@@H](CO)C(=O)N[C@@H](CC(C)C)C(=O)N[C@@H](CC(=O)O)C(=O)N[C@@H](C(=O)N1CCC[C@H]1C(=O)N[C@H](C(=O)N[C@@H](CCCCN)C(=O)N[C@@H](CC(C)C)C(=O)N[C@@H](CCCCNC(=O)CC[C@H](NC(=O)CCCCCCCCCCCCCCCCC(=O)O)C(=O)O)C(=O)N[C@@H](CCCCN)C(=O)N[C@H](C(=O)N[C@@H](CC(C)C)C(=O)N[C@@H](CC(C)C)C(=O)N[C@@H](CCC(=O)O)C(=O)N[C@@H](CCC(N)=O)C(=O)N[C@@H](CCC(=O)O)C(=O)N[C@@H](CCCCN)C(=O)N[C@@H](CCC(N)=O)C(=O)N[C@@H](CCCCN)C(=O)NC(C)(C)C(=O)N[C@@H](CCC(N)=O)C(=O)N[C@@H](CCCNC(=N)N)C(=O)N[C@@H](CCC(=O)O)C(=O)N[C@@H](CCC(N)=O)C(=O)N[C@@H](C)C(=O)N[C@@H](CCC(=O)O)C(=O)N[C@H](C(=O)N[C@@H](CC(N)=O)C(=O)NC1(C(=O)N[C@@H](CCC(N)=O)C(=O)N[C@H](C(=O)N[C@@H](CC(C)C)C(=O)N[C@@H](C)C(=O)N[C@@H](CCC(N)=O)C(=O)N[C@H](C(N)=O)C(C)C)[C@@H](C)CC)CCNCC1)[C@@H](C)O)[C@@H](C)CC)[C@@H](C)CC)C(C)C)C(C)C) [SEQ ID NO 188] | 32% | 0.28 nM | 
Ac-IVLSLD[dV]PIGLK([γGlu-C18 diacid])KILLEQEKQKKQREQAETN[Aib]QILAQV-NH2 (SMILES CC[C@H](C)[C@H](NC(C)=O)C(=O)N[C@H](C(=O)N[C@@H](CC(C)C)C(=O)N[C@@H](CO)C(=O)N[C@@H](CC(C)C)C(=O)N[C@@H](CC(=O)O)C(=O)N[C@@H](C(=O)N1CCC[C@H]1C(=O)N[C@H](C(=O)NCC(=O)N[C@@H](CC(C)C)C(=O)N[C@@H](CCCCNC(=O)CC[C@H](NC(=O)CCCCCCCCCCCCCCCCC(=O)O)C(=O)O)C(=O)N[C@@H](CCCCN)C(=O)N[C@H](C(=O)N[C@@H](CC(C)C)C(=O)N[C@@H](CC(C)C)C(=O)N[C@@H](CCC(=O)O)C(=O)N[C@@H](CCC(N)=O)C(=O)N[C@@H](CCC(=O)O)C(=O)N[C@@H](CCCCN)C(=O)N[C@@H](CCC(N)=O)C(=O)N[C@@H](CCCCN)C(=O)N[C@@H](CCCCN)C(=O)N[C@@H](CCC(N)=O)C(=O)N[C@@H](CCCNC(=N)N)C(=O)N[C@@H](CCC(=O)O)C(=O)N[C@@H](CCC(N)=O)C(=O)N[C@@H](C)C(=O)N[C@@H](CCC(=O)O)C(=O)N[C@H](C(=O)N[C@@H](CC(N)=O)C(=O)NC(C)(C)C(=O)N[C@@H](CCC(N)=O)C(=O)N[C@H](C(=O)N[C@@H](CC(C)C)C(=O)N[C@@H](C)C(=O)N[C@@H](CCC(N)=O)C(=O)N[C@H](C(N)=O)C(C)C)[C@@H](C)CC)[C@@H](C)O)[C@@H](C)CC)[C@@H](C)CC)C(C)C)C(C)C) [SEQ ID NO 191] | 54% | 0.18 nM | 92.9 nM
Ac-IVLSLD[dV]PIKLK([γGlu-C18 diacid])KILLEQEKQK[Aib]QREQAETN[Aib]QILAQV-NH2 (SMILES CC[C@H](C)[C@H](NC(C)=O)C(=O)N[C@H](C(=O)N[C@@H](CC(C)C)C(=O)N[C@@H](CO)C(=O)N[C@@H](CC(C)C)C(=O)N[C@@H](CC(=O)O)C(=O)N[C@@H](C(=O)N1CCC[C@H]1C(=O)N[C@H](C(=O)N[C@@H](CCCCN)C(=O)N[C@@H](CC(C)C)C(=O)N[C@@H](CCCCNC(=O)CC[C@H](NC(=O)CCCCCCCCCCCCCCCCC(=O)O)C(=O)O)C(=O)N[C@@H](CCCCN)C(=O)N[C@H](C(=O)N[C@@H](CC(C)C)C(=O)N[C@@H](CC(C)C)C(=O)N[C@@H](CCC(=O)O)C(=O)N[C@@H](CCC(N)=O)C(=O)N[C@@H](CCC(=O)O)C(=O)N[C@@H](CCCCN)C(=O)N[C@@H](CCC(N)=O)C(=O)N[C@@H](CCCCN)C(=O)NC(C)(C)C(=O)N[C@@H](CCC(N)=O)C(=O)N[C@@H](CCCNC(=N)N)C(=O)N[C@@H](CCC(=O)O)C(=O)N[C@@H](CCC(N)=O)C(=O)N[C@@H](C)C(=O)N[C@@H](CCC(=O)O)C(=O)N[C@H](C(=O)N[C@@H](CC(N)=O)C(=O)NC(C)(C)C(=O)N[C@@H](CCC(N)=O)C(=O)N[C@H](C(=O)N[C@@H](CC(C)C)C(=O)N[C@@H](C)C(=O)N[C@@H](CCC(N)=O)C(=O)N[C@H](C(N)=O)C(C)C)[C@@H](C)CC)[C@@H](C)O)[C@@H](C)CC)[C@@H](C)CC)C(C)C)C(C)C) [SEQ ID NO 190] | 9% | 0.3 nM | 
Ac-IVLSLD[dV]PIKLK([γGlu-C18 diacid])KILLEQEKQKAQREQAETN[Aib]QILAQV-NH2 (SMILES CC[C@H](C)[C@H](NC(C)=O)C(=O)N[C@H](C(=O)N[C@@H](CC(C)C)C(=O)N[C@@H](CO)C(=O)N[C@@H](CC(C)C)C(=O)N[C@@H](CC(=O)O)C(=O)N[C@@H](C(=O)N1CCC[C@H]1C(=O)N[C@H](C(=O)N[C@@H](CCCCN)C(=O)N[C@@H](CC(C)C)C(=O)N[C@@H](CCCCNC(=O)CC[C@H](NC(=O)CCCCCCCCCCCCCCCCC(=O)O)C(=O)O)C(=O)N[C@@H](CCCCN)C(=O)N[C@H](C(=O)N[C@@H](CC(C)C)C(=O)N[C@@H](CC(C)C)C(=O)N[C@@H](CCC(=O)O)C(=O)N[C@@H](CCC(N)=O)C(=O)N[C@@H](CCC(=O)O)C(=O)N[C@@H](CCCCN)C(=O)N[C@@H](CCC(N)=O)C(=O)N[C@@H](CCCCN)C(=O)N[C@@H](C)C(=O)N[C@@H](CCC(N)=O)C(=O)N[C@@H](CCCNC(=N)N)C(=O)N[C@@H](CCC(=O)O)C(=O)N[C@@H](CCC(N)=O)C(=O)N[C@@H](C)C(=O)N[C@@H](CCC(=O)O)C(=O)N[C@H](C(=O)N[C@@H](CC(N)=O)C(=O)NC(C)(C)C(=O)N[C@@H](CCC(N)=O)C(=O)N[C@H](C(=O)N[C@@H](CC(C)C)C(=O)N[C@@H](C)C(=O)N[C@@H](CCC(N)=O)C(=O)N[C@H](C(N)=O)C(C)C)[C@@H](C)CC)[C@@H](C)O)[C@@H](C)CC)[C@@H](C)CC)C(C)C)C(C)C) [SEQ ID NO 189] | 9% | 0.29 nM | 
[NMeI]VLSLD[dV]PIGLK([γGlu-C18 diacid])KILLEQEKQKKQREQAETN[Aib]QILAQV-NH2 (N-terminus assumed; SMILES CC[C@H](C)[C@H](NC)C(=O)N[C@H](C(=O)N[C@@H](CC(C)C)C(=O)N[C@@H](CO)C(=O)N[C@@H](CC(C)C)C(=O)N[C@@H](CC(=O)O)C(=O)N[C@@H](C(=O)N1CCC[C@H]1C(=O)N[C@H](C(=O)NCC(=O)N[C@@H](CC(C)C)C(=O)N[C@@H](CCCCNC(=O)CC[C@H](NC(=O)CCCCCCCCCCCCCCCCC(=O)O)C(=O)O)C(=O)N[C@@H](CCCCN)C(=O)N[C@H](C(=O)N[C@@H](CC(C)C)C(=O)N[C@@H](CC(C)C)C(=O)N[C@@H](CCC(=O)O)C(=O)N[C@@H](CCC(N)=O)C(=O)N[C@@H](CCC(=O)O)C(=O)N[C@@H](CCCCN)C(=O)N[C@@H](CCC(N)=O)C(=O)N[C@@H](CCCCN)C(=O)N[C@@H](CCCCN)C(=O)N[C@@H](CCC(N)=O)C(=O)N[C@@H](CCCNC(=N)N)C(=O)N[C@@H](CCC(=O)O)C(=O)N[C@@H](CCC(N)=O)C(=O)N[C@@H](C)C(=O)N[C@@H](CCC(=O)O)C(=O)N[C@H](C(=O)N[C@@H](CC(N)=O)C(=O)NC(C)(C)C(=O)N[C@@H](CCC(N)=O)C(=O)N[C@H](C(=O)N[C@@H](CC(C)C)C(=O)N[C@@H](C)C(=O)N[C@@H](CCC(N)=O)C(=O)N[C@H](C(N)=O)C(C)C)[C@@H](C)CC)[C@@H](C)O)[C@@H](C)CC)[C@@H](C)CC)C(C)C)C(C)C) [SEQ ID NO 192] | 19% | 0.11 nM | 
